PMC5844954, “Insc:LGN tetramers promote asymmetric divisions of mammary stem cells” (Nature Communications, 2018)

T1: human Insc of the Insc:LGN:Gαi complex (human, UniProt Q1MX18-2 1-532)
T1 construct: human Inscuteable; Same chain as the Insc chain of m16
T1 sequence (looked up): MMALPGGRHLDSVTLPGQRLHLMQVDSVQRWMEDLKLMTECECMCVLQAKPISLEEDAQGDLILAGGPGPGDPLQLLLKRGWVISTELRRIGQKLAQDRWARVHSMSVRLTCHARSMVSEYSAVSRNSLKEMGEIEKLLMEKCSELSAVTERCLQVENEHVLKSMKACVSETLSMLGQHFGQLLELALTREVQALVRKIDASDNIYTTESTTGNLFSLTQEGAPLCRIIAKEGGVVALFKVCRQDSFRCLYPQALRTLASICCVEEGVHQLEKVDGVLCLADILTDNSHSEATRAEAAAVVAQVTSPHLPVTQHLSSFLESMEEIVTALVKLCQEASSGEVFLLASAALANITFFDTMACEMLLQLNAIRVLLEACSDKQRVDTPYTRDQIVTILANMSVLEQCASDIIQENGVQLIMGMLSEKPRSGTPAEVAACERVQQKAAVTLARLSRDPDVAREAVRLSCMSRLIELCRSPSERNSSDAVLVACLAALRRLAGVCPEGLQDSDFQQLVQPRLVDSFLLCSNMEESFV

T2: Drosophila LGN (Pins) TPR domain, residues 25-406 (Drosophila, UniProt Q9VB22 25-406)
T2 construct: Pins (fly orthologue of LGN), Drosophila, residues 25-406 (TPR domain); Monomeric in isolation; two copies stand in the 2:2 tetramer with Insc^ASYM; also called dLGN^TPR; dLGN^25–406
T2 sequence (looked up): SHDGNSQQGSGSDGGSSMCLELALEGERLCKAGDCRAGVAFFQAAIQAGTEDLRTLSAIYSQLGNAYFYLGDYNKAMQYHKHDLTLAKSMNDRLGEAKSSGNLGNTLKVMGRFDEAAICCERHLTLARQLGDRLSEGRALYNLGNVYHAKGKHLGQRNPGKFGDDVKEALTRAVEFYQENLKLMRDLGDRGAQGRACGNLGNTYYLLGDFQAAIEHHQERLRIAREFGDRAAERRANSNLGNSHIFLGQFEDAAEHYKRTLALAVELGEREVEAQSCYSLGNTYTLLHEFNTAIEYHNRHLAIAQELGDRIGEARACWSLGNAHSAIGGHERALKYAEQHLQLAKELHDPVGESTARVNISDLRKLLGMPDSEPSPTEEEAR


What was measured:
[1] = target: T1, human Insc of the Insc:LGN:Gαi complex; assay: SEC; Par3^PDZ123 mixed in molar excess with purified Insc:LGN:Gαi, SDS-PAGE of fractions; conditions: both partners purified
[2] = target: T2, Drosophila LGN (Pins) TPR domain, …; assay: SEC-MALS; static light scattering of the dLGN^TPR:Insc^ASYM complex eluting from a size-exclusion column; conditions: both partners purified
[3] = target: the molecule itself; assay: crystal structure; dLGN 25-406:Insc 283-623 complex, 3.4 Å, space group P212121, four tetramers in the asymmetric unit

binding result [1]	stoichiometry N [2]	Binder	binding result [3]
binds	–	human Par3^PDZ123 (residues 269-685), GST-tag removed (domain or fragment, UniProt Q8TEW0 269-685, looked up, human Par3, residues 269-685 (the three PDZ domains), Uniprot Q8TEW0) DDMVKLVEVPNDGGPLGIHVVPFSARGGRTLGLLVKRLEKGGKAEHENLFRENDCIVRINDGDLRNRRFEQAQHMFRQAMRTPIIWFHVVPAANKEQYEQLSQSEKNNYYSSRFSPDSQYIDNRSVNSAGLHTVQRAPRLNHPPEQIDSHSRLPHSAHPSGKPPSAPASAPQNVFSTTVSSGYNTKKIGKRLNIQLKKGTEGLGFSITSRDVTIGGSAPIYVKNILPRGAAIQDGRLKAGDRLIEVNGVDLVGKSQEEVVSLLRSTKMEGTVSLLVFRQEDAFHPRELNAEPSQMQIPKETKAEDEDIVLTPDGTREFLTFEVPLNDSGSAGLGVSVKGNRSKENHADLGIFVKSIINGGAASKDGRLRVNDQLIAVNGESLLGKTNQDAMETLRRSMSTEGNKRGMIQLIVARRIS	–
–	1 Insc per dLGN (2:2)	Drosophila Inscuteable asymmetric domain, residues 283-623 (domain or fragment, UniProt Q24367 283-623, looked up, Inscuteable, Drosophila, residues 283-623 (asymmetric domain: Insc^PEPT stretch, four-helix bundle, three Armadillo repeats); Two copies stand in the 2:2 tetramer with dLGN^TPR; also called Insc^ASYM; Insc-A^ASYM) SLRFTASTSTPKSGSKIAKRGKKHPEPVASWMSEQRWAGEPEVMCTLQHKSIAQEAYKNYTITTSAVCKLVRQLQQQALSLQVHFERSERVLSGLQASSLPEALAGATQLLSHLDDFTATLERRGVFFNDAKIERRRYEQHLEQIRTVSKDTRYSLERQHYINLESLLDDVQLLKRHTLITLRLIFERLVRVLVISIEQSQCDLLLRANINMVATLMNIDYDGFRSLSDAFVQNEAVRTLLVVVLDHKQSSVRALALRALATLCCAPQAINQLGSCGGIEIVRDILQVESAGERGAIERREAVSLLAQITAAWHGSEHRVPGLRDCAESLVAGLAALLQPE	binds
